Consider two molecules from paper PMC10811338, “2.7 Å cryo-EM structure of human telomerase H/ACA ribonucleoprotein” (Nature Communications, 2024).

Series [1] concerns the molecule itself. Kind of series: cryo-EM structure; telomerase-DNA-TPT complex assembled in HEK293T cells and purified as a whole, BS3 cross-linked; H/ACA RNP lobe by signal subtraction; 2.7 Å (semi-closed thumb loop) and 3.1 Å (open thumb loop) reconstructions.
In the next series the target is T1, TCAB1 (human (endogenous in HEK293T), UniProt Q9BUR4 1-548).
T1 construct: TCAB1, human, Cajal body localization factor of the telomerase H/ACA RNP; also called Cajal body localization factor; source: HEK293T cells transfected with TERT and hTR
Described as above. Conditions: both partners purified.

T1 sequence (Q9BUR4 whole entry): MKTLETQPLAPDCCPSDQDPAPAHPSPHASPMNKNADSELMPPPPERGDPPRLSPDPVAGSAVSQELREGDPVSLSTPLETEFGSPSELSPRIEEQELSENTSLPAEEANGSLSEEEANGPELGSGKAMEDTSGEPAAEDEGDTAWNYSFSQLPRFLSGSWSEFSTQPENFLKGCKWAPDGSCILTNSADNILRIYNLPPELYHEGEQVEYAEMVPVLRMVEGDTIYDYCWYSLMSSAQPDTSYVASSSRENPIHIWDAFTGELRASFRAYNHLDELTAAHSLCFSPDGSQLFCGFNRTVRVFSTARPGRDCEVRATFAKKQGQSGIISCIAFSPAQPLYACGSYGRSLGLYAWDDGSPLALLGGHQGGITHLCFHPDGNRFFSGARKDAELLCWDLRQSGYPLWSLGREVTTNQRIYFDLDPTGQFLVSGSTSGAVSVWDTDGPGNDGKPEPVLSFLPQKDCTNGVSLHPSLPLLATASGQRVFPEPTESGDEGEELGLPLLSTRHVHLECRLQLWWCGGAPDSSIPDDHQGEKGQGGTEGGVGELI

B1: dyskerin (natural protein, human (endogenous in HEK293T), UniProt O60832 1-514, looked up)
chain: MADAEVIILPKKHKKKKERKSLPEEDVAEIQHAEEFLIKPESKVAKLDTSQWPLLLKNFDKLNVRTTHYTPLACGSNPLKREIGDYIRTGFINLDKPSNPSSHEVVAWIRRILRVEKTGHSGTLDPKVTGCLIVCIERATRLVKSQQSAGKEYVGIVRLHNAIEGGTQLSRALETLTGALFQRPPLIAAVKRQLRVRTIYESKMIEYDPERRLGIFWVSCEAGTYIRTLCVHLGLLLGVGGQMQELRRVRSGVMSEKDHMVTMHDVLDAQWLYDNHKDESYLRRVVYPLEKLLTSHKRLVMKDSAVNAICYGAKIMLPGVLRYEDGIEVNQEIVVITTKGEAICMAIALMTTAVISTCDHGIVAKIKRVIMERDTYPRKWGLGPKASQKKLMIKQGLLDKHGKPTDSTPATWKQEYVDYSESAKKEVVAEVVKAPQVVAEAAKTAKRKRESESESDETPPAAPQLIKKEKKKSKKDKKAKAGLESGAEPGDGDSDTTKKKKKKKKAKEVELVSE
notes: dyskerin, human, catalytic pseudouridine synthase subunit of H/ACA RNPs; domains NTE, PUA, TruB, CTE; two copies (5’ and 3’) stand in the telomerase H/ACA RNP; residues 1-22 (5’ copy) and 1-42 (3’ copy) are not visible in the map; also called 5’ dyskerin; 3’ dyskerin; source: endogenous, HEK293T cells transfected with TERT and hTR
As to B1, in series [1], the binding result is reported as “binds”.

B2: NHP2 (natural protein, human (endogenous in HEK293T), UniProt Q9NX24 1-153, looked up)
chain: MTKIKADPDGPEAQAEACSGERTYQELLVNQNPIAQPLASRRLTRKLYKCIKKAVKQKQIRRGVKEVQKFVNKGEKGIMVLAGDTLPIEVYCHLPVMCEDRNLPYVYIPSKTDLGAAAGSKRPTCVIMVKPHEEYQEAYDECLEEVQSLPLPL
notes: NHP2, human, core H/ACA protein; two copies (5’ and 3’) stand in the telomerase H/ACA RNP; also called 3’ NHP2; source: HEK293T cells transfected with TERT and hTR
On to B2, for which the binding result with TCAB1 is listed as “binds”.
